Test results: PMC5821850, “Basal condensation of Numb and Pon complex via phase transition during Drosophila neuroblast asymmetric division” (Nature Communications, 2018)
Numbering of substitutions follows the chain as printed. In names and notes the source's numbering stands. Square brackets hold non-standard residues; d marks the D form. Ends that are not written are not given here. pT = C[C@@H](OP(=O)(O)O)[C@H](N)C(=O)O

How the values were obtained:
[1] = molecular target: Drosophila Numb PTB domain (aa 65-203) (Drosophila) (UniProt P16554)
[2] = molecular target: Drosophila Numb PTB domain (aa 65-203) (Drosophila) (UniProt P16554); remark: listed apart in the source
[3] = molecular target: Drosophila Numb PTB domain (aa 65–203), P16554-1; assay: ITC; conditions: parent: 1.80 ± 0.17
Numb PTB R171A [4] = molecular target: T1, Numb PTB R171A (Drosophila, UniProt P16554-1 65-203, R171A); assay: ITC; Pon fragments (~0.5 mM) injected into PTB proteins (~0.05 mM); 20 °C; 50 mM Tris pH 8.0, 100 mM NaCl, 1 mM EDTA, 1 mM β-ME; one-site binding model
T1 sequence: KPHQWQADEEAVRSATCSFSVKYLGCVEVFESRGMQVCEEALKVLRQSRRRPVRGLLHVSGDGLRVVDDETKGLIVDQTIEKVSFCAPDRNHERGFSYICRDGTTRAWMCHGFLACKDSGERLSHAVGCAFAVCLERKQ

[5] = molecular target: Drosophila Numb PTB domain (aa 65-203) (Drosophila) (UniProt P16554); assay: as above
[6] = molecular target: T2, Drosophila Numb PTB domain (aa 65–203) (Drosophila, UniProt P16554-1 65-203); assay: AUC; sedimentation velocity, 42,000 rpm, 4 °C, interference detection, SEDFIT; Numb PTB with three molar ratios of Nak AB, or with Pon A2B2; conditions: both partners purified
T2 construct: Numb PTB domain, Drosophila, Uniprot P16554-1, aa 65-203; source: E. coli BL21 (DE3), purified (Ni2+-NTA, SEC); not shown: His tag, N-terminal, cleaved
T2 sequence (looked up): T1 sequence with A107R

[7] = molecular target: T3, Drosophila Numb PTB domain (aa 65–203) (Drosophila, UniProt P16554-1 65-203); assay: ITC
T3 chain: T1 sequence with A107R

[8] = molecular target: T4, Drosophila Numb PTB domain (aa 65-203) (Drosophila, UniProt P16554-1 65-203); assay: ITC; Pon fragments (~0.5 mM) injected into PTB proteins (~0.05 mM); 20 °C; 50 mM Tris pH 8.0, 100 mM NaCl, 1 mM EDTA, 1 mM β-ME; one-site binding model; conditions: both partners purified
T4 construct: Numb, Drosophila, PTB domain, residues 65-203; theoretical mass 15.7 kDa in the ultracentrifugation; also called dNumb PTB; Numb 65-203; source: E. coli BL21 (DE3), purified (Ni2+-NTA, SEC); not shown: His tag, N-terminal, cleaved
T4 sequence (looked up): T1 sequence with A107R

[9] = molecular target: T3, Drosophila Numb PTB domain (aa 65–203); assay: ITC
Numb PTB R171A [10] = molecular target: T1, Numb PTB R171A; assay: ITC
[11] = molecular target: T2, Drosophila Numb PTB domain (aa 65–203); assay: ITC; ITC200, 20 °C, buffer A (50 mM Tris pH 8.0, 1 mM EDTA, 1 mM β-ME, 100 mM NaCl); Pon fragments (~0.5 mM) injected into PTB proteins (~0.05 mM); one-site binding model; conditions: both partners purified

Pon N-terminal fragment (aa 1–228), A1B1A2B2A3B3 (domain or fragment)
in vitro phase transition, sedimentation assay: share of the proteins in the condensed liquid phase against the molar ratio, highest at 1:3 Pon A1B3 to Numb PTB [1]: > 90%
in vitro phase transition, sedimentation assay: share of Numb PTB and Pon A1B3 recovered from the condensed liquid phase, 1:1 mixture, 25 to 100 μM [2]: 80%

Pon A2B2 fragment N152A; P153A
Kd [3]: 49.3 µM

Pon 110-148 (B1A2) (domain or fragment)
Kd (Numb PTB R171A [4]): > 100 µM
Kd [5]: 8.77 µM

Pon 130-162 (A2B2) (domain or fragment)
Kd (Numb PTB R171A [4]): > 100 µM
Kd [5]: 1 µM

Pon A2B2 N152P153A (domain or fragment)
Kd [5]: 48.3 µM

Pon 157-200 (A3B3) (domain or fragment)
Kd [5]: 12.2 µM

B1: Nak AB fragment (Numb-associated kinase, C-terminal A and B motifs) (peptide)
chain: QNSAKTGFSNMSFEDFPSDQEMDRLSRTIPFEVVRNEKML
stoichiometry N [6]: 1

B2: Pon A1 (peptide)
chain: AAVASTESCFTNAAFSST
Kd [7]: > 70 µM

B3: Pon 1-116 (A1) (domain or fragment)
chain: MLETKSIAALAFTETPRKRKRETLYKNAAPPPNPQQQPPEKDAQDAAVASTESCFTNAAFSSTPKKLMVARRRLAKENSQPNPFPGLEVKSIADLAQKQQHQQHHQQQQQQQQKLP
Kd [8]: ~70 µM

B4: pPon peptide (peptide)
peptide: ESCFTNAAFSS[pT]PKK
notes: Pon, Drosophila; the peptide holds the A1 motif FTNAAF; the range is counted from N57 of the A1 motif; source: synthetic peptide
Kd [8]: 11.3 ± 0.37 µM

B5: Pon single-AB fragment with N152,P153A in the B2 motif (peptide)
chain: KKKKREHACFENPGLNLELPEKQFAAYEVVRSA
Kd [9]: 49.3 µM

B6: Pon A2B2 fragment (peptide)
chain: B5 chain with A25N, A26P
Kd [7]: 1.8 µM
Kd (Numb PTB R171A [10]): > 100 µM

B7: Pon single-AB fragment with R158A in the B2 motif (peptide)
chain: B5 chain with A25N, A26P, R31A
Kd [9]: > 100 µM

B8: Pon A2B2 K149A (peptide)
chain: B5 chain with K22A, A25N, A26P
Kd [9]: 5.46 µM

B9: Pon single-AB fragment with Y154E in the B2 motif (peptide)
chain: B5 chain with A25N, A26P, Y27E
Kd [9]: > 100 µM

B10: Pon single-AB fragment with E121A in the B1 motif (peptide)
chain: QQKLPTNPFAVLRQPPKKKKREHACFENPGLNLE
Kd [9]: > 100 µM

B11: Pon B1A2 fragment (peptide)
chain: B10 chain with A10E
Kd [7]: 8.77 µM
Kd (Numb PTB R171A [10]): > 100 µM

B12: Pon B1A2 E121A (domain or fragment)
chain: QQQQKLPTNPFAVLRQPPKKKKREHACFENPGLNLELPE
Kd [8]: > 100 µM

B13: pPon peptide (peptide)
peptide: ESCFTNAAFSS[pT]PKK
notes: Pon, Drosophila; stretch with the A1 motif FTNAAF (N57) followed by the phosphorylated threonine; limits worked out by setting the Asn of FTNAAF to N57 of the A1 motif; source: synthetic peptide (commercially synthesized)
Kd [11]: ~11 µM

B14: Pon 1-130/41-130 (A1B1) (domain or fragment)
chain: MLETKSIAALAFTETPRKRKRETLYKNAAPPPNPQQQPPEKDAQDAAVASTESCFTNAAFSSTPKKLMVARRRLAKENSQPNPFPGLEVKSIADLAQKQQHQQHHQQQQQQQQKLPTNPFEVLRQPPKKK
Kd [8]: 18.1 ± 2.2 µM

B15: Pon 124-148/130-148 (A2) (domain or fragment)
chain: KKREHACFENPGLNLELPE
Kd [8]: > 100 µM

B16: Pon A3B3 fragment (peptide)
chain: VRSATTPAKGFVNPALNLRGSDAPASLNPFEIHRPSEASEAACN
Kd [7]: 12.2 µM

B17: Pon A2B2 K148A (domain or fragment)
chain: KKREHACFENPGLNLELPEAQFNPYEVVRSATT
Kd [8]: 0.48 ± 0.02 µM

B18: Pon A2B2 R158A (domain or fragment)
chain: B17 chain with A20K, R29A
Kd [8]: > 100 µM

B19: Pon A2B2 Y154E (domain or fragment)
chain: B17 chain with A20K, Y25E
Kd [8]: > 100 µM
